In patent US20230266324A1 (Hoffmann-La Roche, published 2023):

Molecular target: T1, PD-L1 (human, UniProt Q9NZQ7 19-290)
T1 construct: whole, on cells; Endogenous PD-L1 on in vitro generated human DCs (iDCs, mDCs); also called B7-H1; B7-4
Experiment: confocal imaging of co-localization on the surface of human mDCs

T1 sequence (Q9NZQ7 19-290): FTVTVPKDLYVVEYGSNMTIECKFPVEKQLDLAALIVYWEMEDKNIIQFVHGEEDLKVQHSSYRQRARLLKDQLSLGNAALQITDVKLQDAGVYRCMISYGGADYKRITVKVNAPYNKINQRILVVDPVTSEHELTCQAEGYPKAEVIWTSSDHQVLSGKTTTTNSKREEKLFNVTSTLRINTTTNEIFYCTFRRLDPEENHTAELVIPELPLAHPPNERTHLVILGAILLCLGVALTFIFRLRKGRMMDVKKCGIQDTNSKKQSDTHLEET

B1: CD80 (ligand, human, UniProt P33681 35-288, looked up)
chain: VIHVTKEVKEVATLSCGHNVSVEELAQTRIYWQKEKKMVLTMMSGDMNIWPEYKNRTIFDITNNLSIVILALRPSDEGTYECVVLKYEKDAFKREHLAEVTLSVKADFPTPSISDFEIPTSNIRRIICSTSGGFPEPHLSWLENGEELNAINTTVSQDPETELYAVSSKLDFNMTTNHSFMCLIKYGHLRVNQTFNWNTTKQEHFPDNLLPSWAITLISVNGIFVICCLTYCFAPRCRERRRNERLRRESVRPV
notes: whole, on cells; Endogenous CD80 on human DCs, seen by confocal imaging; also called B7-1; B7.1
B1: binds.
